{
  "source": "patent US20200318071A1",
  "target": "human CD33 (full length, CD33M) (human) (UniProt P20138)",
  "sequence (P20138 18-364 limits assumed)": "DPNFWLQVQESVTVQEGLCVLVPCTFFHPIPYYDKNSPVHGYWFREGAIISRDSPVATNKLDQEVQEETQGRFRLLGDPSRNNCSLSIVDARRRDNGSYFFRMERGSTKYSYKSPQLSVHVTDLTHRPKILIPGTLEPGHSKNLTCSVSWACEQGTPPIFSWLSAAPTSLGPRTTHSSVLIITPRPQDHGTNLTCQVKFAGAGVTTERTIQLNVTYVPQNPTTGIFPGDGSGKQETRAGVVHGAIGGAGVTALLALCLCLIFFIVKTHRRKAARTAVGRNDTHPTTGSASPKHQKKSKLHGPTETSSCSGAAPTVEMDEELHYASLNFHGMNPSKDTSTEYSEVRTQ",
  "experiment": "cell-based or functional assay",
  "data": [
    {"substance": "gemtuzumab ozogamicin (antibody)", "values": [
      {"measurement": "IC50 of GO cytotoxicity, HL-60 cells (viable cell number, Celltiter Glo, 72 hours)", "result": 35.5, "unit": "ng/mL"},
      {"measurement": "IC50 of GO cytotoxicity, THP-1 cells (viable cell number, Celltiter Glo, 72 hours)", "result": 16.3, "unit": "ng/mL"}
    ]}
  ]
}
